Results as given in the supplement of paper PMC9732359.
± gives the uncertainty stated by the source.

Assay: protein stability index of a GFP-peptide fusion (yeast GPS) (PSI 1-4); higher = more stable; sorted into four equal gates, so the index is relative within each strain
Outline: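 Tiled 17-residue peptides from yeast proteins were fused downstream of GFP on a plasmid that also expresses Cherry, and the pooled library was carried in yeast. Mid-log cultures grown in leucine-free medium were sorted into four equal gates by GFP/Cherry fluorescence ratio. Plasmids from each gate were PCR-amplified and Illumina-sequenced, and reads were assigned to strains by barcodes. Each peptide's protein stability index is the sum, over gates, of the gate's read frequency multiplied by its gate number.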

Sequence | protein stability index (doa10∆) | protein stability index (pdr5∆) | protein stability index (san1∆) | protein stability index (ubr1∆)
IQLNGGSISEKVDWARE [RPL3] | 2.66 ± 0.29 | 2.96 ± 0.12 | 2.88 ± 0.12 | –
LEESDVEDTLHVNKRKR [YOR098C/NUP1] | 3.26 ± 0.095 | 2.89 ± 0.095 | 3.12 ± 0.074 | 2.91 ± 0.062
HNGSHRTVAGFSNVELP [ARP7] | 3.1 ± 0.071 | 2.83 ± 0.07 | 2.72 ± 0.085 | 2.8 ± 0.048
NAFRKEELLLKDLEIRK [GAL11] | – | 3.09 ± 0.098 | 3.18 ± 0.079 | 3.03 ± 0.13
QISIIDIWSISKKRQAE [YML031W/NDC1] | 2.32 ± 0.056 | 2.63 ± 0.052 | 2.54 ± 0.053 | 2.79 ± 0.039
MFHGAKGPLLIERIGHL [PCI8] | 2.5 ± 0.22 | – | – | –
NNLKNSGNSANNMNVNM [GAL11] | 2.92 ± 0.046 | 2.9 ± 0.041 | 2.87 ± 0.035 | 3.02 ± 0.039
SLVEVVFYRGMTMQVAV [FAS1] | 1.32 ± 0.06 | 1.88 ± 0.059 | 1.4 ± 0.11 | 1.99 ± 0.12
SDINQNDDSSSMNATMR [YDL088C/ASM4] | 2.88 ± 0.09 | 2.98 ± 0.075 | 2.76 ± 0.073 | 2.69 ± 0.054
QDLSRNTLGKGQNCLDI [SNU114] | 3.35 ± 0.12 | 3.28 ± 0.12 | 3.28 ± 0.16 | 3.61 ± 0.15
NNLEPRQTTSNTGLLNK [RPN11] | 3.2 ± 0.062 | 3.24 ± 0.061 | 3.14 ± 0.044 | 3.32 ± 0.046
EDLFDDYPSTSLDIRHD [NUT1] | 1.81 ± 0.081 | 2.9 ± 0.077 | 3.09 ± 0.058 | 2.05 ± 0.056
MTTPQNISSSQQLLPAP [DSN1] | 2.82 ± 0.049 | 2.89 ± 0.04 | 2.74 ± 0.036 | 2.81 ± 0.038
KTLVYLEKCEAEFKKRK [YCS4] | 3.42 ± 0.28 | 3.69 ± 0.17 | – | –
LLVPASDLINKDLVKNN [FAS1] | 1.76 ± 0.086 | 2.95 ± 0.097 | 3.11 ± 0.12 | 2.83 ± 0.11
GNYVIIIGHNPDENKTR [RPL2A] | 2.97 ± 0.088 | 3.32 ± 0.093 | 3.12 ± 0.074 | 2.87 ± 0.082
FVWLSSEENIGSGLLKL [SWI1] | 3.3 ± 0.098 | 3.19 ± 0.09 | 3.28 ± 0.067 | 3.38 ± 0.068
IDHINEESWEKVVEFAI [SCL1] | 2.78 ± 0.07 | 3.08 ± 0.082 | 3.03 ± 0.068 | 2.91 ± 0.06
QSTNLNRSAKNSKNDSA [YCS4] | 2.53 ± 0.05 | 2.63 ± 0.05 | 2.67 ± 0.064 | 2.79 ± 0.046
DEEASYKLGKVKKVQLG [RPS4A] | 2.96 ± 0.1 | 3.1 ± 0.069 | 2.9 ± 0.063 | 2.98 ± 0.061
PSNFEINAEEIVDFTLP [PRP8] | 2.91 ± 0.083 | 3.18 ± 0.082 | 3 ± 0.064 | 3.02 ± 0.049
ADLPGSYNLEYIESKFC [YMR129W/POM152] | 3.16 ± 0.13 | 3.38 ± 0.19 | 3.13 ± 0.14 | 3.24 ± 0.093
SMERKVQGAAPWDTSLE [MCD1] | 3.5 ± 0.11 | 3.1 ± 0.089 | 3.25 ± 0.087 | 3.44 ± 0.16
GAKQTQGGAMNKKSEQA [SRP72] | 2.77 ± 0.067 | 3.07 ± 0.07 | 3.26 ± 0.049 | 3.47 ± 0.054
QANSNLTLLERKWVIFI [NUT1] | 1.85 ± 0.055 | 1.92 ± 0.044 | 1.67 ± 0.094 | 2.19 ± 0.061
QFELLSRRWRQRKNIQS [BRR2] | 1.44 ± 0.08 | 1.92 ± 0.056 | 1.55 ± 0.088 | 1.65 ± 0.044

Sequence | protein stability index (doa10∆) | protein stability index (pdr5∆) | protein stability index (san1∆) | protein stability index (ubr1∆)
SGRNIHLAVVCVDDNSK [SSN2] | 2.14 ± 0.087 | 1.61 ± 0.045 | 1.48 ± 0.085 | 2.96 ± 0.045
FNYGKLPLPPSVEWMKV [SIN4] | 2.6 ± 0.11 | 2.93 ± 0.093 | 2.93 ± 0.065 | 2.92 ± 0.064
DLQYLGEFSGKNFSPTK [RRP6] | 3.46 ± 0.063 | 3.25 ± 0.083 | 3.19 ± 0.04 | 3.24 ± 0.038
PAQKDSSVVSEPKKPSF [YOR098C/NUP1] | 2.94 ± 0.061 | 2.71 ± 0.05 | 2.3 ± 0.076 | 2.89 ± 0.042
QETEGTNRHTLALETVL [SIR3] | 2.72 ± 0.063 | 2.57 ± 0.054 | 2.53 ± 0.06 | 2.83 ± 0.041
SPDKIGTFTADYSKPNL [SSN2] | 2.81 ± 0.094 | 3 ± 0.066 | 2.65 ± 0.08 | 2.92 ± 0.064
KTSLSIKVENLNDTTEK [SMC2] | 2.87 ± 0.058 | 2.97 ± 0.081 | 3.09 ± 0.063 | 2.89 ± 0.05
VDPARRQILFKYPMYMQ [MED6] | 1.54 ± 0.069 | 1.78 ± 0.076 | 1.95 ± 0.17 | 1.47 ± 0.051
ASHNVRRIPKRMRNRAL [POP1] | 2.11 ± 0.16 | 2.34 ± 0.058 | – | 2.07 ± 0.25
ADGQTLFAGYTDNVIRV [ASC1] | 1.85 ± 0.055 | 2.16 ± 0.052 | 2.22 ± 0.063 | 2.35 ± 0.057
DLKLLFNTEAEQTVSAV [RGR1] | 2.84 ± 0.088 | 2.93 ± 0.085 | 3.33 ± 0.11 | 3.19 ± 0.066
LLIEFPYLPKHYLVLLV [YJR042W/NUP85] | 1.98 ± 0.06 | 1.67 ± 0.053 | 2.07 ± 0.067 | 1.81 ± 0.047
KAKAQAQAQAQAQAQVY [PGD1] | 2.96 ± 0.11 | 3.26 ± 0.088 | 3.04 ± 0.083 | 3 ± 0.066
EKIKKINYHQYISKAQN [SSN2] | 1.82 ± 0.055 | 2.18 ± 0.041 | 2.07 ± 0.078 | 2.15 ± 0.062
VAGLEDKFRKACSSSGR [SIR3] | 3.16 ± 0.14 | 2.93 ± 0.095 | 2.98 ± 0.18 | 2.9 ± 0.056
DLDETTQTFNGSIFTHE [YML031W/NDC1] | 2.96 ± 0.05 | 2.85 ± 0.037 | 2.85 ± 0.038 | 2.92 ± 0.033
RHGFNRSNTGALMRCSF [RPO21] | 2.71 ± 0.059 | 3.01 ± 0.064 | 2.85 ± 0.061 | 2.88 ± 0.079
QQQQQNTNNNDTIATSA [GAL11] | 2.457 ± 0.021 | 2.576 ± 0.02 | 2.478 ± 0.021 | 2.603 ± 0.018
RVLITQRHIAVGKQIVN [RPS9A] | 2.22 ± 0.072 | 1.92 ± 0.087 | 2.83 ± 0.12 | 2.59 ± 0.15
ILEEGSSGMGAFGGSGG [RPN10] | 3.36 ± 0.13 | 3 ± 0.16 | 3.04 ± 0.15 | 3.28 ± 0.081
LERYYKEQADIYAKQQE [ARP7] | 3.29 ± 0.29 | – | – | 3.42 ± 0.14
LSHIVYFLVLSPYGNLQ [RPN5] | 1.53 ± 0.054 | 1.33 ± 0.055 | 1.25 ± 0.087 | 1.12 ± 0.034
CLNCEKSKLFEWKSEFV [SNM1] | 2.61 ± 0.14 | 2.68 ± 0.13 | 2.97 ± 0.067 | 2.7 ± 0.12
HLPCTIEAEEAEEIGVE [RPN8] | 1.8 ± 0.078 | 1.74 ± 0.082 | 2.59 ± 0.11 | 2.89 ± 0.053
DMKEYDSDKGSKLNELK [SMC2] | 3.25 ± 0.14 | 3.28 ± 0.1 | 3.27 ± 0.072 | 3.29 ± 0.14
SKICLSHFSLDQFITSL [ITC1] | 2.21 ± 0.06 | 2.86 ± 0.076 | 2.17 ± 0.081 | 2.69 ± 0.057

Sequence | protein stability index (doa10∆) | protein stability index (pdr5∆) | protein stability index (san1∆) | protein stability index (ubr1∆)
PTQITQYTQRLSKLEKA [SRP68] | 1.75 ± 0.06 | 2.08 ± 0.045 | 2.06 ± 0.079 | 2.48 ± 0.045
PANAEPQAVTITSIMDD [ITC1] | 2.39 ± 0.11 | 2.83 ± 0.09 | 2.49 ± 0.069 | 3.02 ± 0.11
WRLLFIDKFIMVVQKYK [GRR1] | 2.07 ± 0.054 | 1.79 ± 0.052 | 1.66 ± 0.083 | 2.38 ± 0.043
YSTIRQLVYKRGFGKIN [RPL7A] | 2.34 ± 0.064 | 1.97 ± 0.047 | 2.24 ± 0.11 | 1.98 ± 0.049
MQAIADSFSVPNRLVKE [PRE2] | 2.94 ± 0.14 | 3.02 ± 0.24 | 3.03 ± 0.14 | –
LNKGKKVTSMTPAPKIS [RPL36A] | – | 2.98 ± 0.14 | – | 3.15 ± 0.12
TRINGLNSNNSIIGNKN [REC8] | 3.2 ± 0.089 | 3.04 ± 0.072 | 3.21 ± 0.048 | 2.98 ± 0.051
TQAKKLYHHTTKTILSG [SRP72] | 3.17 ± 0.069 | 2.86 ± 0.051 | 2.49 ± 0.098 | 3.26 ± 0.046
PKGATYGKPTNQGVNEL [RPL15A] | 3.02 ± 0.1 | 3.22 ± 0.085 | 3.2 ± 0.054 | 3.29 ± 0.044
EHIIRDVHNGYILRYLH [COB] | 2.35 ± 0.23 | 1.7 ± 0.13 | 1.39 ± 0.16 | 2 ± 0.11
MTIDDSNRLLMDVDQFD [YJR042W/NUP85] | – | 3.63 ± 0.21 | 3.25 ± 0.098 | 3.51 ± 0.2
VDIYSLPLISTDVLEIS [YMR129W/POM152] | 2.06 ± 0.052 | 2.58 ± 0.049 | 2.43 ± 0.045 | 2.44 ± 0.044
VLNMLYWVPDWDGVIPT [RPO21] | 2.92 ± 0.067 | 2.63 ± 0.066 | 2.92 ± 0.055 | 3.16 ± 0.038
ETDNEMNGNGKPGIPRG [SIR3] | 3.16 ± 0.099 | 3.11 ± 0.083 | 3.39 ± 0.053 | 2.99 ± 0.1
LATPVQFELLSRRWRQR [BRR2] | 1.79 ± 0.072 | 1.87 ± 0.054 | 1.81 ± 0.072 | 2.17 ± 0.051
KKRESGVEEEEELKDSE [SNF2] | 3.38 ± 0.28 | – | 3.3 ± 0.12 | –
EATAASHERFFLSQGLH [CSN12] | 1.43 ± 0.16 | 1.28 ± 0.1 | 1.09 ± 0.24 | 1.35 ± 0.18
IPGEYITYALSGYVRSR [RPS21B] | 2.42 ± 0.059 | 2.73 ± 0.095 | 2.39 ± 0.093 | 2.77 ± 0.047
TRSNPPFKRKMLLVDII [REC8] | 1.9 ± 0.098 | 1.98 ± 0.087 | 2.14 ± 0.16 | 2.58 ± 0.061
ANAMNRMAKLCARFLGN [RPO31] | 3.12 ± 0.21 | – | – | –
GSIFTHETTFMTAMRLM [YML031W/NDC1] | 1.88 ± 0.072 | 2.53 ± 0.083 | 2.71 ± 0.065 | 2.64 ± 0.081
DTAGEESQQQDESLKDE [SWI3] | 3.36 ± 0.2 | – | 3.13 ± 0.16 | 3.61 ± 0.29
TPTDVIGVVSLTNGVTE [RRP6] | 3.21 ± 0.14 | 2.87 ± 0.07 | 3.03 ± 0.098 | 3.15 ± 0.059
RARKDRMRVSVLEKYEV [SSN3] | 2.02 ± 0.11 | 2.65 ± 0.089 | 2.19 ± 0.13 | 1.97 ± 0.039
VVEDKPLLSKKERLVRD [SMB1] | 1.14 ± 0.063 | 1.2 ± 0.043 | 1.21 ± 0.13 | 1.49 ± 0.056
ADKNCAKLHRISPKIWC [PUP1] | 2.09 ± 0.055 | 2.1 ± 0.061 | 1.94 ± 0.059 | 2.14 ± 0.05
